This test deals with Arabidopsis thaliana Receptor-Like Protein 30, GFP-tagged (RLP30-GFP) (Arabidopsis thaliana) (UniProt Q9MA83).
Sequence of UniProt Q9MA83 (Q9MA83 31-786): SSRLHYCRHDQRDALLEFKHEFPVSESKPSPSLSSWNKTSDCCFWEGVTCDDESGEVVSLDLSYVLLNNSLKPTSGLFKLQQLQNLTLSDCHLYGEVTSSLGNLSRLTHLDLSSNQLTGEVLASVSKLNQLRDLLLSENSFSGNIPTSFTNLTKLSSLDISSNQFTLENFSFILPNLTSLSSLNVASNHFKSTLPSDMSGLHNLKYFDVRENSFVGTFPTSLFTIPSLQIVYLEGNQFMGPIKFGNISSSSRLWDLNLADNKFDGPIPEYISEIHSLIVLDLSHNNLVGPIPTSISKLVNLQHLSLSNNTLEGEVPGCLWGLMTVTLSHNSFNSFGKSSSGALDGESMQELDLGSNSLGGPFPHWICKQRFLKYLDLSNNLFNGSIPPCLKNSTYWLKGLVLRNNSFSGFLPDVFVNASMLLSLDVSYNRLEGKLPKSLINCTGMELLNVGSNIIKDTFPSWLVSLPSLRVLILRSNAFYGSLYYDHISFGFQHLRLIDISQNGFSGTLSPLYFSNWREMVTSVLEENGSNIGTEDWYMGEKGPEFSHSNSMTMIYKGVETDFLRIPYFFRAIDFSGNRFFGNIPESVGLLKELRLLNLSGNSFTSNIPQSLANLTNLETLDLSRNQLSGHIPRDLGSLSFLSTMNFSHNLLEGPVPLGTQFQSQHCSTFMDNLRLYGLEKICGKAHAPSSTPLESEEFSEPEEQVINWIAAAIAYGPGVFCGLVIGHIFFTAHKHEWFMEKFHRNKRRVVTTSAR

As to “SMALL CYSTEINE-RICH PROTEIN FROM S. SCLEROTIORUM, myc-tagged (SCP^Ss-myc) (ligand)”, the ethylene production in Arabidopsis Col-0 plants, half-maximal induction (EC50); the protein applied was His-tagged SCP^Ss from P. pastoris, affinity purified via His-Trap columns amounted to 26 nM.

For the origin of these results see publication PMC10279758.
